*1 amine or outer side, *2 acyl side, *3 side chain or, on linkers, in order; H or OH if unused. Where no end group is shown, it is not given here. Side-chain parts run from the residue outwards. [ ]: non-standard residue; d: D form. The star is where a group is joined. C18 diacid = O=C(O)CCCCCCCCCCCCCCCCC(=O)*; γGlu = O=C(O)[C@H](CCC(=O)[*:2])N[*:1]; Nle = CCCC[C@H](N)C(=O)O; AEEA = NCCOCCOCC(=O)O; Aib = CC(C)(N)C(=O)O Some results are limits rather than exact numbers.

Holding throughout (assay): cell-based or functional assay
For assay [1], the target named is human GLP-1 receptor (human) (UniProt P43220).
Assay [2] concerns the target T1, human GIP receptor (human) (UniProt P48546).
T1 sequence (looked up): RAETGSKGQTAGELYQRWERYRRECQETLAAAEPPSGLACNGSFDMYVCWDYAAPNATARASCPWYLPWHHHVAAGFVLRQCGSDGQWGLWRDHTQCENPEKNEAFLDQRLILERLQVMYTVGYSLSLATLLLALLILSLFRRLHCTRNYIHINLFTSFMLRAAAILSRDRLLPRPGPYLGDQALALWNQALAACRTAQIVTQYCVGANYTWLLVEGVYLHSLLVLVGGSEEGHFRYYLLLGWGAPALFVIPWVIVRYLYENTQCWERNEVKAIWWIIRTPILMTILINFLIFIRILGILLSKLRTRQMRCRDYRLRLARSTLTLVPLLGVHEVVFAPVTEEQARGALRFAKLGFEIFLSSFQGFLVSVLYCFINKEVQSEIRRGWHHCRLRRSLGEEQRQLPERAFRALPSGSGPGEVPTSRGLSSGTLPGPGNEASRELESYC

Assay [3] concerns the target human glucagon receptor (human) (UniProt P47871).
The target in another assay is human glucagon receptor (human, UniProt P47871 26-477).
human glucagon receptor, sequence (P47871 26-477): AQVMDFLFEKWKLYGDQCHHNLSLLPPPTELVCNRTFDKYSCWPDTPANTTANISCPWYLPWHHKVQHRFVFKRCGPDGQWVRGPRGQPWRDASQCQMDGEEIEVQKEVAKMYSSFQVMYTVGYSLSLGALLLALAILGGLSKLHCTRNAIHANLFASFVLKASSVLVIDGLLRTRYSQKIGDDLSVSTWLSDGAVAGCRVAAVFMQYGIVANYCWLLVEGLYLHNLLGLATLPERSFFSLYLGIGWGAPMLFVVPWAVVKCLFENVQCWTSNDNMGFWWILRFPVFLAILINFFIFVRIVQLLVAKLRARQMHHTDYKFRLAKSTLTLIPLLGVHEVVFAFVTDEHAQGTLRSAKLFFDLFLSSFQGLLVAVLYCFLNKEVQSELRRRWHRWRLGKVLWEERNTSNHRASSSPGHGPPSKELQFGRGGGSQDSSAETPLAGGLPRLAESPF

human GLP-1 receptor (human), sequence (P43220 24-463): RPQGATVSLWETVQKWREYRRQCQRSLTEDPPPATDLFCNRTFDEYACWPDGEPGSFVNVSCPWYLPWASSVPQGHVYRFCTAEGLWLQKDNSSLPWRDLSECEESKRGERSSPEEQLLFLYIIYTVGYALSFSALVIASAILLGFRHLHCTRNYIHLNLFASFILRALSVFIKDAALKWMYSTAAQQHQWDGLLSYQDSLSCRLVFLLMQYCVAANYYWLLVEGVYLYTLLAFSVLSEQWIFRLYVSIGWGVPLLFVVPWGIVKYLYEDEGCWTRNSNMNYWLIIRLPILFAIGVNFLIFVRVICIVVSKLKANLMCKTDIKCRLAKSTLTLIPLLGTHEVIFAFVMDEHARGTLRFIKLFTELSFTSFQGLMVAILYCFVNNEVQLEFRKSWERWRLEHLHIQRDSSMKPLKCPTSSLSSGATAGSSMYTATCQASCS
human glucagon receptor (human), sequence (P47871 26-477): as the sequence (P47871 26-477) above

In the case of Y[Aib]EGTFISDYSIA[Nle]DKIRQQDFVK([γGlu-γGlu-γGlu-C18 diacid])WLLAQKGKENDWKHNITQ, the EC50 (pM), hGLP-1-R CRE Luc, 1% HSA (footnote *) in assay [1] was above 100000 pM. The molecule further had an EC50 (pM), hGIP-R CRE Luc, 0.2% HSA in assay [2] of 20.1 pM. Also, the EC50 (pM), hGcg-R CRE Luc, 1% HSA (footnote *) in assay [3] is above 100000 pM.
Y[Aib]EGTFISDYSIA[Nle]DKIHQQDFVK([γGlu-γGlu-γGlu-C18 diacid])WLLAQKG returned an EC50 (pM), hGLP-1-R CRE Luc, 1% HSA (footnote *) in assay [1] above 100000 pM. The same molecule returned an EC50 (pM), hGIP-R CRE Luc, 0.2% HSA in assay [2] of 49.9 pM. This molecule also yielded an EC50 (pM), hGcg-R CRE Luc, 1% HSA (footnote *) in assay [3] above 100000 pM.
The molecule Y[Aib]EGTFISDYSIA[Nle]DKIHQQDFVK([AEEA-AEEA-γGlu-C18 diacid])WLLAQKGKEDDWKHNITQ gave an EC50 (pM), hGLP-1-R CRE Luc, 0.2% HSA in assay [1] above 100000 pM. In addition, the EC50 (pM), hGIP-R CRE Luc, 0.2% HSA in assay [2] came out at 5.97 pM. This molecule yielded an EC50 (pM), hGcg-R CRE Luc, 0.2% HSA in assay [3] above 100000 pM.
For the molecule H-YAEGTFISDYSIAMDKIHQQDFVNWLLAQKGKKNDWKHNITQ-OH [hGIP(1-42)], the “EC50 (pM), hGcg-R CRE Luc, 0.2% HSA” value with human glucagon receptor was above 100000 pM.
On to Y[Aib]EGTFISDYSIA[Nle]DKIRQQDFVK([γGlu-γGlu-γGlu-C18 diacid])WLLAQKGKEEDWKHNITQ, for which, in assay [1], the EC50 (pM), hGLP-1-R CRE Luc, 0.2% HSA was above 100000 pM. In assay [2], this molecule displayed an EC50 (pM), hGIP-R CRE Luc, 0.2% HSA of 4.47 pM. In assay [3], this molecule gave an EC50 (pM), hGcg-R CRE Luc, 0.2% HSA above 100000 pM.
Y[Aib]EGTFISDYSIA[Nle]DKIHQQDFVK([AEEA-AEEA-γGlu-C18 diacid])WLLAQKGKEEDWKHNITQ had an EC50 (pM), hGLP-1-R CRE Luc, 0.2% HSA in assay [1] above 100000 pM. For the same molecule, the EC50 (pM), hGIP-R CRE Luc, 0.2% HSA in assay [2] stood at 5.45 pM. Also, in assay [3], the EC50 (pM), hGcg-R CRE Luc, 0.2% HSA was above 100000 pM.
As for Y[Aib]EGTFISDYSIA[Nle]DKIHQQDFVK([γGlu-γGlu-γGlu-C18 diacid])WLLAQKGKENDWKHNITQ, the EC50 (pM), hGLP-1-R CRE Luc, 1% HSA (footnote *) in assay [1] is above 100000 pM. The same molecule registered an EC50 (pM), hGIP-R CRE Luc, 0.2% HSA in assay [2] of 21.3 pM. Further, the EC50 (pM), hGcg-R CRE Luc, 1% HSA (footnote *) in assay [3] is above 100000 pM.
Consider Y[Aib]EGTFISDYSIA[Nle]DKIRQQDFVK([AEEA-AEEA-γGlu-C18 diacid])WLLAQKGKEEDWKHNITQ, for which the EC50 (pM), hGLP-1-R CRE Luc, 0.2% HSA in assay [1] is above 100000 pM. The molecule further returned an EC50 (pM), hGIP-R CRE Luc, 0.2% HSA in assay [2] of 4.12 pM. For the same molecule, the EC50 (pM), hGcg-R CRE Luc, 0.2% HSA in assay [3] is above 100000 pM.
Y[Aib]EGTFISDYSIA[Nle]DKIHQQDFVK([γGlu-γGlu-γGlu-C18 diacid])WLLAQKGKEEDWKHNITQ returned an EC50 (pM), hGLP-1-R CRE Luc, 0.2% HSA in assay [1] above 100000 pM. Also, the EC50 (pM), hGIP-R CRE Luc, 0.2% HSA in assay [2] came to 9 pM. This molecule returned an EC50 (pM), hGcg-R CRE Luc, 0.2% HSA in assay [3] above 100000 pM.
For the molecule Y[Aib]EGTFISDYSIALDKIHQQDFVK([AEEA-AEEA-γGlu-C18 diacid])WLLAQKGKKNDWKHNITQ, the EC50 (pM), hGLP-1-R CRE Luc, 1% HSA (footnote *) in assay [1] was above 100000 pM. This molecule showed an EC50 (pM), hGIP-R CRE Luc, 0.2% HSA in assay [2] of 56 pM. Besides, in assay [3], the EC50 (pM), hGcg-R CRE Luc, 1% HSA (footnote *) was above 100000 pM.
With Y[Aib]EGTFISDYSIA[Nle]DKIHQQDFVK([γGlu-γGlu-γGlu-C18 diacid])WLLAQKGKEDDWKHNITQ, in assay [1], the EC50 (pM), hGLP-1-R CRE Luc, 0.2% HSA is above 100000 pM. The EC50 (pM), hGIP-R CRE Luc, 0.2% HSA in assay [2] amounted to 5.9 pM. The molecule further registered an EC50 (pM), hGcg-R CRE Luc, 0.2% HSA in assay [3] above 100000 pM.

For the origin of these results see patent US20190367578A1 (Novo Nordisk, published 2019).
